The record followed here is US20060057696A1, “Sugar chain synthases” (priority 2002, published 2006).

The target in assay [1] is T1, human ST6Gal I (Homo sapiens, UniProt P15907).
T1 sequence (P15907 1-406): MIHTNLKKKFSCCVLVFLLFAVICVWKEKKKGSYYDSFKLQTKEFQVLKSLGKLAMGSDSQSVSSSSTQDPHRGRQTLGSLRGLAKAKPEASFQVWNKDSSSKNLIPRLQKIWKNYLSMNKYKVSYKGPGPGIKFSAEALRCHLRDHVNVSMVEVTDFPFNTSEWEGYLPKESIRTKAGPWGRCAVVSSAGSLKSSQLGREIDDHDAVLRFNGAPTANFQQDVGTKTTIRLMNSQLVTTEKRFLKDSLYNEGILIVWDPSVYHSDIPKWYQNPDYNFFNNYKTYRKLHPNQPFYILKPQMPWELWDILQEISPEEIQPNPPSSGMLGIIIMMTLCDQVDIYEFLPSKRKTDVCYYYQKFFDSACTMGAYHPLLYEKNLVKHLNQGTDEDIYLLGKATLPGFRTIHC
Nature of the assay: Sialyltransferase activity of human ST6Gal I toward acceptor substrates (comparison). The settings on record: incorporation with Galβ1,4GlcNAc taken as 100; 0.5 mg/ml glycolipids, 1 mg/ml glycoproteins and oligosaccharides. In kind it is biochemical. Here is the method:
(§1) Using each expression vector and lipofectamine (Invitrogen), transient expression was carried out in COS-7 cells (Kojima, N. et al. (1995) FEBS Lett. 360, 1-4). The proteins of the present invention secreted from the cells into which each expression vector had been introduced were named as PA-hST6Gal II (human) and PA-mST6Gal II (mouse). PA-hST6Gal II and PA-mST6Gal II were adsorbed to IgG-Sepharose (Amersham Pharmacia Biotech), and were then recovered from medium. Sialyltransferase activity was measured as follows according to the method of Lee et al. (Lee, Y.-C. et al. (1999) J Biol. Chem. 274, 11958-11967). A reaction mixture (10 μl) containing 50 mM MES buffer (pH 6.0), 1 mM MgCl2, 1 mM CaCl2, 0.5% Triton CF-54, 100 μM CMP-[^14C]-NeuAc, a substrate sugar chain (which was added at 0.5 mg/ml in the case of glycolipids, and at 1 mg/ml in the case of glycoproteins or oligosaccharides), and a PA-hST6Gal II or PA-mST6Gal II suspension, was incubated at 37° C. for 3 to 20 hours. Thereafter, in the case of glycolipids, the reaction product was purified with a C-18 column (Sep-Pak Vac 100 mg; Waters) and the purified product was used as a sample. In the case of oligosaccharides or glycoproteins, the reaction product was directly used as a sample. Thus, the obtained sample was subjected to analysis. In the case of oligosaccharides or glycolipids, the sample was spotted on a silica gel 60 HPTLC plate (Merck), and it was then developed with a developing solvent consisting of 1-propanol:ammonia water:water=6:1:2.5 (for oligosaccharides), or a developing solvent consisting of chloroform:methanol: 0.02% CaCl2=55:45:10 (for glycolipids). In the case of glycoproteins, analysis was carried out by SDS-polyacrylamide gel electrophoresis. The obtained radioactivities were visualized with a BAS2000 radio image analyzer (Fuji Film) and then quantified.
In contrast, there were no glycolipids, which could be substrates of both the enzymes, as far as the inventors have examined. The activity of human ST6Gal I on oligosaccharides was also examined for comparison. […] (FIG. 10).

The target of assay [2] is T2, PA-mST6Gal II (mouse ST6Gal II) (Mus musculus, UniProt Q76K27, R48S).
T2 construct: amino acids 31-524 in the case of mouse ST6Gal II; signal peptide of mouse immunoglobulin IgM (N); made in house; host or cells: COS-7 cells, transient expression of pcDSA-mST6Gal II; protein recovered from medium on IgG-Sepharose
T2 sequence (Q76K27 31-524 R48S): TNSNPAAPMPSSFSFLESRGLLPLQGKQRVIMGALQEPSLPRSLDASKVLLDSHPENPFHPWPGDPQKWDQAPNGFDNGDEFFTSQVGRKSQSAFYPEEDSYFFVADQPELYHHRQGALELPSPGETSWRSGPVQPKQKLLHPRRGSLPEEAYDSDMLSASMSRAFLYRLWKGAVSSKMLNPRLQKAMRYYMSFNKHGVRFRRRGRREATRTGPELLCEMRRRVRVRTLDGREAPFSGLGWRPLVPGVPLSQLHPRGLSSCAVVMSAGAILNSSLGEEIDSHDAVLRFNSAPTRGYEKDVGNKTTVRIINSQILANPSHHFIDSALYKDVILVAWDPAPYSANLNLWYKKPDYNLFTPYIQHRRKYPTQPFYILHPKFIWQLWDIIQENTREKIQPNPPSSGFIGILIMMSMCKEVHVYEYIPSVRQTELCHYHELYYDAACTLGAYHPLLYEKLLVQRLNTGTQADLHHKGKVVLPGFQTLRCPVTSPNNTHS
Nature of the assay: Sialyltransferase activity of PA-mST6Gal II toward acceptor substrates. In kind it is biochemical. The settings on record: PA-mST6Gal II; incorporation with Galβ1,4GlcNAc taken as 100; 0.5 mg/ml glycolipids, 1 mg/ml glycoproteins and oligosaccharides. Here is the method: as §1

With Galβ1,4Glcβ1-Cer [Lactosylceramide], the “Relative rate (%) Human ST6Gal I” value in assay [1] is recorded as 0%. Also, the “Relative rate (%) Mouse ST6Gal II” value in assay [2] is on record as 0%.

Take “Asialo- α1-Acid glycoprotein: desialylated α1-acid glycoprotein prepared at 80° C. for 1 hour in 0.02 N HCl”: the “Relative rate (%) Human ST6Gal I” value in assay [1] is 93.0%. Further, the “Relative rate (%) Mouse ST6Gal II” value in assay [2] amounted to 12.3%.

Take “Galβ1,3GalNAcβ1,4(NeuAcα2,3)Galβ1,4Glcβ1-Cer [GM1a]”: the “Relative rate (%) Human ST6Gal I” value in assay [1] was determined as 0%. For the same molecule, the “Relative rate (%) Mouse ST6Gal II” value in assay [2] is given as 0%.

Consider “Asialofetuin: asialo glycoprotein acceptor substrate purchased from Sigma”, for which, in assay [1], the “Relative rate (%) Human ST6Gal I” value came out at 95.0%. Also, in assay [2], the “Relative rate (%) Mouse ST6Gal II” value is 21.0%.

As to “α1-Acid glycoprotein: glycoprotein acceptor substrate purchased from Sigma”, the “Relative rate (%) Human ST6Gal I” value in assay [1] came out at 37.1%. Further, the “Relative rate (%) Mouse ST6Gal II” value in assay [2] was 0.75%.

With “Fetuin: glycoprotein acceptor substrate containing both O-glycans and N-glycans, purchased from Sigma”, the “Relative rate (%) Human ST6Gal I” value in assay [1] came to 13.0%. Moreover, the “Relative rate (%) Mouse ST6Gal II” value in assay [2] was found to be 0%.

As to NeuAcα2,3Galβ1,4Glcβ1-Cer [GM3], the “Relative rate (%) Human ST6Gal I” value in assay [1] is recorded as 0%. Further, the “Relative rate (%) Mouse ST6Gal II” value in assay [2] worked out at 0%.

B1: Ovomucoid: glycoprotein acceptor substrate which contains only N-glycans (protein, UniProt P01005 25-210, looked up)
Ovomucoid: AEVDCSRFPNATDKEGKDVLVCNKDLRPICGTDGVTYTNDCLLCAYSIEFGTNISKEHDGECKETVPMNCSSYANTTSEDGKVMVLCNRAFNPVCGTDGVTYDNECLLCAHKVEQGASVDKRHDGGCRKELAAVSVDCSEYPKPDCTAEDRPLCGSDNKTYGNKCNFCNAVVESNGTLTLSHFGKC
As to B1, the “Relative rate (%) Human ST6Gal I” value in assay [1] is 9.0%. Moreover, the “Relative rate (%) Mouse ST6Gal II” value in assay [2] is given as 0%.

B2: Asialoovomucoid: desialylated ovomucoid prepared at 80° C. for 1 hour in 0.02 N HCl (protein, UniProt P01005 25-210, looked up)
Ovomucoid: AEVDCSRFPNATDKEGKDVLVCNKDLRPICGTDGVTYTNDCLLCAYSIEFGTNISKEHDGECKETVPMNCSSYANTTSEDGKVMVLCNRAFNPVCGTDGVTYDNECLLCAHKVEQGASVDKRHDGGCRKELAAVSVDCSEYPKPDCTAEDRPLCGSDNKTYGNKCNFCNAVVESNGTLTLSHFGKC
modifications: desialylated
notes: desialylated ovomucoid prepared at 80° C. for 1 hour in 0.02 N HCl
On to B2, for which the “Relative rate (%) Human ST6Gal I” value in assay [1] worked out at 12.7%. For the same molecule, the “Relative rate (%) Mouse ST6Gal II” value in assay [2] is 0%.
